According to IntAct's records for PubMed 10946006:

B1: Microsomal triglyceride transfer protein large subunit (Homo sapiens), P55157 (parent)
chain: MILLAVLFLCFISSYSASVKGHTTGLSLNNDRLYKLTYSTEVLLDRGKGKLQDSVGYRISSNVDVALLWRNPDGDDDQLIQITMKDVNVENVNQQRGEKSIFKGKSPSKIMGKENLEALQRPTLLHLIHGKVKEFYSYQNEAVAIENIKRGLASLFQTQLSSGTTNEVDISGNCKVTYQAHQDKVIKIKALDSCKIARSGFTTPNQVLGVSSKATSVTTYKIEDSFVIAVLAEETHNFGLNFLQTIKGKIVSKQKLELKTTEAGPRLMSGKQAAAIIKAVDSKYTAIPIVGQVFQSHCKGCPSLSELWRSTRKYLQPDNLSKAEAVRNFLAFIQHLRTAKKEEILQILKMENKEVLPQLVDAVTSAQTSDSLEAILDFLDFKSDSSIILQERFLYACGFASHPNEELLRALISKFKGSIGSSDIRETVMIITGTLVRKLCQNEGCKLKAVVEAKKLILGGLEKAEKKEDTRMYLLALKNALLPEGIPSLLKYAEAGEGPISHLATTALQRYDLPFITDEVKKTLNRIYHQNRKVHEKTVRTAAAAIILNNNPSYMDVKNILLSIGELPQEMNKYMLAIVQDILRFEMPASKIVRRVLKEMVAHNYDRFSRSGSSSAYTGYIERSPRSASTYSLDILYSGSGILRRSNLNIFQYIGKAGLHGSQVVIEAQGLEALIAATPDEGEENLDSYAGMSAILFDVQLRPVTFFNGYSDLMSKMLSASGDPISVVKGLILLIDHSQELQLQSGLKANIEVQGGLAIDISGAMEFSLWYRESKTRVKNRVTVVITTDITVDSSFVKAGLETSTETEAGLEFISTVQFSQYPFLVCMQMDKDEAPFRQFEKKYERLSTGRGYVSQKRKESVLAGCEFPLHQENSEMCKVVFAPQPDSTSSGWF
partner: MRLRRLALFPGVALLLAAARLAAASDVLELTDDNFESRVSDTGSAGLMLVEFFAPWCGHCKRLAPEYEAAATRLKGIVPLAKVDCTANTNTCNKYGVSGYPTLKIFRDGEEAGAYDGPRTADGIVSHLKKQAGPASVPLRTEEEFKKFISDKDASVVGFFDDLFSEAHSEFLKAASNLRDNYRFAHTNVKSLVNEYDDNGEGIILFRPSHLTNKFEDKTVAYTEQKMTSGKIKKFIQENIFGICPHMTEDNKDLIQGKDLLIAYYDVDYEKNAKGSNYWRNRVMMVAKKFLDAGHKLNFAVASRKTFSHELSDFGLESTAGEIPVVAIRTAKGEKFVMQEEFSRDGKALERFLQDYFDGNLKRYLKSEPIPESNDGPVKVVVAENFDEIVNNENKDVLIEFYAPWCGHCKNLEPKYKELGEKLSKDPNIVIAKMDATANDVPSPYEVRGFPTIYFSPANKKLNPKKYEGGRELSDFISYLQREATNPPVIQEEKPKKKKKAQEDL

Variants of: B1
Conditions: with pdia3_chlae PDIA3, Q4VIT4

effect of a mutation on the interaction | Variant
with no effect | N780Y
